Literature values as cited in article PMC4887106.

Biological target: Histone H4K20me1/2 (Homo sapiens) (UniProt P62805)

- Kd: 10 µM
Substance: MBTD1 4xMBT (from UniProt Q05BQ5)
